{
  "source": "paper PMC6895265",
  "key": {"[1]": {"molecular_target": "TCF4 bHLH domain (Homo sapiens) (UniProt P15884)", "sequence (P15884 565-624)": "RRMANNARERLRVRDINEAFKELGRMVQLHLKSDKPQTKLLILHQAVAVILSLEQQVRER", "experiment": "FP", "settings": "25 C"}, "[2]": {"molecular_target": "TCF4 bHLH domain (Homo sapiens) (UniProt P15884)", "experiment": "ITC", "settings": "ITC: 20 mM Tris pH 7.5, 150 mM NaCl, 25 C"}},
  "data": [
    {"sequence": "CCGGTCACGTGTCCTA (double strand) [FAM 16-mer central CpG M/C]", "values": [
      {"measurement": "Kd", "setting": "[1]; 5mC at strand 1 C8, ITC: 20 mM Tris pH 7.5, 150 mM NaCl", "result": 160, "unit": "nM"}
    ]},
    {"sequence": "CCGGTCACGTGTCCTA (double strand) [FAM 16-mer central CpG F/C]", "values": [
      {"measurement": "Kd", "setting": "[1]; 5fC at strand 1 C8, ITC: 20 mM Tris pH 7.5, 150 mM NaCl", "result": 190, "unit": "nM"}
    ]},
    {"sequence": "ACGCACGTGCGT (double strand) [12-mer CG-flanked, X=C]", "values": [
      {"measurement": "Kd", "setting": "[2]", "result": 370, "unit": "nM"}
    ]},
    {"sequence": "CCGGTCACGTGTCCTA (double strand) [FAM 16-mer E-box C/C]", "values": [
      {"measurement": "Kd", "setting": "[1]; ITC: 20 mM Tris pH 7.5, 150 mM NaCl", "result": 110, "unit": "nM"}
    ]},
    {"sequence": "CCGGTCACGTGTCCTA (double strand) [FAM 16-mer central CpG H/C]", "values": [
      {"measurement": "Kd", "setting": "[1]; 5hmC at strand 1 C8, ITC: 20 mM Tris pH 7.5, 150 mM NaCl", "result": 160, "unit": "nM"}
    ]},
    {"sequence": "CCGGTCACGTGTCCTA (double strand) [FAM 16-mer central CpG 5caC/C]", "values": [
      {"measurement": "Kd", "setting": "[1]; 5caC at strand 1 C8, ITC: 20 mM Tris pH 7.5, 150 mM NaCl", "result": 140, "unit": "nM"}
    ]}
  ]
}
